Source: US20150239980A1 (NEOTOPE BOSCIENCES, published 2015)

Tests used:
[1] = molecular target: T1, recombinant hMCAM-His (human, UniProt P43121 24-559); test: summary of ForteBio and competitive ELISA on hMCAM-His; vs rodent 2120
T1 construct: not shown: His tag
T1 chain: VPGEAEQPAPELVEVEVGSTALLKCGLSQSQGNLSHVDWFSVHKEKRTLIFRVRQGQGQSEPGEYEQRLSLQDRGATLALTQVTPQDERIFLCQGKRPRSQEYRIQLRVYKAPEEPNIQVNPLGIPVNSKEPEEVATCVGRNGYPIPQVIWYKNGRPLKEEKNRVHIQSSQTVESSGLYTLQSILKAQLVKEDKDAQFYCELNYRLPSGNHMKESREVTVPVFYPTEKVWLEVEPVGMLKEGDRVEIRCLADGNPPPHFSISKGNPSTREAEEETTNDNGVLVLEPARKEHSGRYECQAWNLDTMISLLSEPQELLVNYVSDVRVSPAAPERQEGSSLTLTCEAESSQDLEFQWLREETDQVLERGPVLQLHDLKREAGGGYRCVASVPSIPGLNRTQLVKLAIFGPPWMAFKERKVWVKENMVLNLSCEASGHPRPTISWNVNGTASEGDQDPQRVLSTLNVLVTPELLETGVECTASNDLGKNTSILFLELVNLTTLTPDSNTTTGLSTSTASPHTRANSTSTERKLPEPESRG
Protocol: (§1) ELISA plates were coated with recombinant hMCAM-His, and blocked with casein buffer to prevent non-specific binding. Biotinylated rodent or chimeric antibody was added at a subsaturating concentration, in the presence or absence of 3× increasing concentrations of unlabeled competitor (humanized antibody, rodent, or chimeric). After washing to remove unbound antibody, streptavidin HRP was added to allow detection of the biotinylated antibody. The ELISA was developed with TMB substrate and the OD450 was measured. The IC50 of the unlabeled competitor was determined using the GraphPad Prism5 software.
(§2) The affinities were measured using the ForteBio Octet Red. Anti-human Fc sensors were used to capture the humanized antibodies, and several concentrations of hMCAMHis analyte were used to determine the affinity using a 1:1 fitting model.

[2] = molecular target: T1, recombinant hMCAM-His; test: ForteBio Octet Red, hMCAM-His analyte; Forte column 1; vs rodent 2120
Protocol: as §2

[3] = molecular target: T1, recombinant hMCAM-His; test: ForteBio Octet Red, hMCAM-His analyte; Forte column 2; vs rodent 2120
Protocol: as §2

[4] = molecular target: T2, human MCAM (melanoma cell adhesion molecule) expressed on transfected CHO cells (human, UniProt P43121 24-646); test: laminin/FACS on hMCAM CHO cells, competitor laminin 411; Expt#1; vs rodent 2120
T2 construct: also called hMCAM; CD146
T2 chain: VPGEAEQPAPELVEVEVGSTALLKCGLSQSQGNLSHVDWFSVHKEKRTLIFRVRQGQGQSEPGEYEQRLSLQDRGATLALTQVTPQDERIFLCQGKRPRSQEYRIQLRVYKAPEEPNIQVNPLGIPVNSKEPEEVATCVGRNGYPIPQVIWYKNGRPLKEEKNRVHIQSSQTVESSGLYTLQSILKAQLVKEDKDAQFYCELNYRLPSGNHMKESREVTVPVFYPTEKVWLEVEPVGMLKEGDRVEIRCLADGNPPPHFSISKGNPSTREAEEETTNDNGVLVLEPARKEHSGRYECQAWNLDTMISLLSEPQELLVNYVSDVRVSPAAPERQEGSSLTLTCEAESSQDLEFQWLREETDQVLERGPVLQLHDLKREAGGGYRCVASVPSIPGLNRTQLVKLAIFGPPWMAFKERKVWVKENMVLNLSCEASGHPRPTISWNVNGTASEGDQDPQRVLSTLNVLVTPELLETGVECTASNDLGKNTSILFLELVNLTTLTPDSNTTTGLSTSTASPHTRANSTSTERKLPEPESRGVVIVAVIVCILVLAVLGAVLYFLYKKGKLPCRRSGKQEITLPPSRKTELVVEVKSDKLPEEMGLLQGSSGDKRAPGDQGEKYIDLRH
Protocol: (§3) Following incubation for 30-45 minutes, the cells were washed and anti-laminin conjugated to AF650 (NovusBio) was added to detect the bound laminin. The cells were run on a flow cytometer to measure the laminin binding signal.

[5] = molecular target: T2, human MCAM (melanoma cell adhesion …); test: laminin/FACS on hMCAM CHO cells, competitor laminin 411; Expt#2; vs rodent 2120
Protocol: as §3

[6] = molecular target: T2, human MCAM (melanoma cell adhesion …); test: summary of laminin blocking assay on hMCAM CHO cells, competitor laminin 411; vs rodent 2120
Protocol: as §3

[7] = molecular target: T1, recombinant hMCAM-His; test: competitive ELISA on hMCAM-His, competitor biotinylated rodent or chimeric 2120; vs rodent 2120
Protocol: as §1

[8] = molecular target: T2, human MCAM (melanoma cell adhesion …); test: laminin/FACS blocking assay, % inhibition of laminin 411 binding to hMCAM-expressing CHO cells against antibody concentration; blocked ligand: laminin 411
Protocol: as §3

[9] = molecular target: T3, recombinant human laminin 511 (Biolamina) (human, UniProt O15230 36-3695; P07942 22-1786; P11047 34-1609); test: SPR, Biacore T200
T3 construct: negative control; also called laminin 10 (α5β1γ1)

[10] = molecular target: T4, Recombinant human laminin-α4 (R&D systems) (human, UniProt Q16363-2 826-1816); test: SPR, Biacore T200, Fc-tagged MCAM IgG1-2A captured by anti-Fc, laminin-α4 as analyte, 1:1 model
T4 construct: also called laminin α-4 chain
T4 sequence (looked up): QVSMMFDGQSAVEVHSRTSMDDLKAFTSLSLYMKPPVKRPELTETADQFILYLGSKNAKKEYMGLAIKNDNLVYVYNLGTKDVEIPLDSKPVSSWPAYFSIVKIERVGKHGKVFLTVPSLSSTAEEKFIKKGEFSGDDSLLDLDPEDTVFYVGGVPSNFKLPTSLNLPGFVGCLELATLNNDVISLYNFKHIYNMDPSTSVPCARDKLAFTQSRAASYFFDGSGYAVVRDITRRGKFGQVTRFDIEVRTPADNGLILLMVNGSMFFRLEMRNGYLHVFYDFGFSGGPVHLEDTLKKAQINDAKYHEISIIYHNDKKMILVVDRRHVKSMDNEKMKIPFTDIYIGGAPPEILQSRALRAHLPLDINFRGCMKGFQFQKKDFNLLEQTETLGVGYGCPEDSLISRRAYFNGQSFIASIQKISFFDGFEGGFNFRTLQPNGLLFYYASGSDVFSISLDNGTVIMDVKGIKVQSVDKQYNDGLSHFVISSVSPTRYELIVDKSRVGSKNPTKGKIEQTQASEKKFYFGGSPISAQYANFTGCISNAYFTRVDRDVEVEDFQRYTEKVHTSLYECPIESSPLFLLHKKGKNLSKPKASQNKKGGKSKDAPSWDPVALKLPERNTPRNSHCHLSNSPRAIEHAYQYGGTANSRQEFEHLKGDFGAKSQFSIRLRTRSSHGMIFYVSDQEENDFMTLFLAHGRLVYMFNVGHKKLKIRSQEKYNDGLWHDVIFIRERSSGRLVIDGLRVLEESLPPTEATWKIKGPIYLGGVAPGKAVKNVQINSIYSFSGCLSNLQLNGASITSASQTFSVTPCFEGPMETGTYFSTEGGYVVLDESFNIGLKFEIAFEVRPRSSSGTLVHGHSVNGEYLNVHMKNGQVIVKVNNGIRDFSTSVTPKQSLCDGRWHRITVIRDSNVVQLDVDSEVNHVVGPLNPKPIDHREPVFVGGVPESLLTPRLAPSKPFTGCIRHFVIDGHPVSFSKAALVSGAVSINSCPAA
Protocol: (§4) The binding affinity of the human laminin-α4 to human MCAM IgG1-2A was measured by Surface Plasmon Resonance on a Biacore T200 machine. Human Fc-specific F(ab′)₂ IgG (Jackson Laboratories) was immobilized on a CM5 chip using amine coupling. The four flow cells of the CM5 chips dextran surface are activated by a 7 min injection of freshly prepared 1:1 50 mM NHS: EDC at a flow rate of 5 μl/min. 70 μl IgG solution (pH 4.5) was injected for 3 min to a density of up to 3 000 RU. The coupling is then blocked by a 7 min injection of 1M ethanolamine to deactivate residual reactive sites. Recombinant human Fc-tagged MCAM IgG1-2A in degassed and filtered HBS-P buffer containing 12 mg/ml BSA and 12 mg/ml carboxy-methylated dextran sodium salt was captured by anti-Fc IgG to a capture level 1560 RU. Recombinant human Fc-tagged MCAM IgG1-2A was centrifuged at 14 000 rpm for 5 min at 4° C. before injection for 20 min at a flow rate of 5 μl/min over the anti-Fc IgG containing surface. Flow cell 1 was left free of IgG to serve as a control surface. One flow cell was used to capture recombinant human IgG1 Fc (R&D systems) to serve as a negative control. […] Buffer injections served as negative control. Data evaluation: Data from the buffer injections and the control surface were subtracted to remove artifacts. […]

[11] = molecular target: T5, recombinant human laminin 411 (Biolamina) (human, UniProt Q16363 25-1823; P07942 22-1786; P11047 34-1609); test: SPR, Biacore T200, Fc-tagged MCAM IgG1-2A captured by anti-Fc, laminin 411 as analyte, steady state
T5 construct: also called laminin 8
Protocol: as §4

[12] = molecular target: T1, recombinant hMCAM-His; test: competitive ELISA on hMCAM-His, competitor biotinylated rodent or chimeric 2107; Expt. #1; vs rodent 2107
In short: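 Plates coated with recombinant hMCAM-His and casein-blocked; biotinylated rodent or chimeric antibody at subsaturating level competed by 3× serial concentrations of unlabeled humanized, rodent or chimeric antibody. Bound biotinylated antibody detected with streptavidin-HRP/TMB at OD450; competitor IC50 fitted.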

[13] = molecular target: T1, recombinant hMCAM-His; test: competitive ELISA on hMCAM-His, competitor biotinylated rodent or chimeric 2107; Expt. #2; vs rodent 2107
Protocol: as §1

[14] = molecular target: T2, human MCAM (melanoma cell adhesion …); test: laminin/FACS on hMCAM CHO cells, competitor laminin 411; Expt#2; seems to serve as the reference of the 2107 family in this column

T5 sequence (P07942 22-1786, chain 2 of 2): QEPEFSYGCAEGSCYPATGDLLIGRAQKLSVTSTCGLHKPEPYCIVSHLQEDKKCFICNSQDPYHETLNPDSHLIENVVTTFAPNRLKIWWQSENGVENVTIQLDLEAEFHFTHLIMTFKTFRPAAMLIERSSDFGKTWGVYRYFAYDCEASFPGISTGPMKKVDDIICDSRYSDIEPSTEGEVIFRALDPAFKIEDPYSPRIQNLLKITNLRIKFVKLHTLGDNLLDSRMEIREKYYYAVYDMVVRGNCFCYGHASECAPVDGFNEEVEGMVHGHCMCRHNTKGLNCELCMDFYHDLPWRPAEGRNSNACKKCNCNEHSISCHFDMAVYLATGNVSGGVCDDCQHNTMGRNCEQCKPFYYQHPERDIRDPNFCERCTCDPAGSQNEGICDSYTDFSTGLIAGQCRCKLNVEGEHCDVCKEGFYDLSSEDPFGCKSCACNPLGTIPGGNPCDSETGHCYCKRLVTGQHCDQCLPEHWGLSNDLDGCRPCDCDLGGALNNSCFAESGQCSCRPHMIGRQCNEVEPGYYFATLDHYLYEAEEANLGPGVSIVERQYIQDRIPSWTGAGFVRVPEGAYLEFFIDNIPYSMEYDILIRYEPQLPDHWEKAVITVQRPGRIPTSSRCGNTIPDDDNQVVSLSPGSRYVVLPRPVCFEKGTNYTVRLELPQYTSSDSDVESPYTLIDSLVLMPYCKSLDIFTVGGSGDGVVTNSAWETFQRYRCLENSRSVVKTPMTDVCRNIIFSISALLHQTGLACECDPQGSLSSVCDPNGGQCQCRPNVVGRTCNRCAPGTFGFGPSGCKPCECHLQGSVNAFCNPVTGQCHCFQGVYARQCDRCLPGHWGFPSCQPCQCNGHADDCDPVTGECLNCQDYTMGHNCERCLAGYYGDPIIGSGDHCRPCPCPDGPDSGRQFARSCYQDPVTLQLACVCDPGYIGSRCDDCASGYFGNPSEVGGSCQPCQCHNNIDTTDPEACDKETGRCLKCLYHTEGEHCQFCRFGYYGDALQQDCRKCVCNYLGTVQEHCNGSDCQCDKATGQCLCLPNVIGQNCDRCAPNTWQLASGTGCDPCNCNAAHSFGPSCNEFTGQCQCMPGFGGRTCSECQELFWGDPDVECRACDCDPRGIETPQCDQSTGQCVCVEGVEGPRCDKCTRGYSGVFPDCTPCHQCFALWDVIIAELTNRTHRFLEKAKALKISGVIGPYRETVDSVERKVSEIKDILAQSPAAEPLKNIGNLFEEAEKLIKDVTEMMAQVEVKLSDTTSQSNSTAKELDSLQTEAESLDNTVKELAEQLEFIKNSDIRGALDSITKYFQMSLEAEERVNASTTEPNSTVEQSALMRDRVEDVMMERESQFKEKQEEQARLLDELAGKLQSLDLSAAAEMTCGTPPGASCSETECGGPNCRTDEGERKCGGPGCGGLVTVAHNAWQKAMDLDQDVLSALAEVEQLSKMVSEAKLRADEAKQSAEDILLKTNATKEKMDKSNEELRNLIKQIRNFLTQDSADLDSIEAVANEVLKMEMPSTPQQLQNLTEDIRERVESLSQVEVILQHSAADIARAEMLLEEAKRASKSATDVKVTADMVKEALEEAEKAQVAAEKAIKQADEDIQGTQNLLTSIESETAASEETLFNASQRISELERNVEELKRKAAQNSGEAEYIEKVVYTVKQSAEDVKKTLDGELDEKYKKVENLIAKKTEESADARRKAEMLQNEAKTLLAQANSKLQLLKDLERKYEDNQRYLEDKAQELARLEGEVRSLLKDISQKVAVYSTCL
T5 sequence (P11047 34-1609, chain 3 of 2): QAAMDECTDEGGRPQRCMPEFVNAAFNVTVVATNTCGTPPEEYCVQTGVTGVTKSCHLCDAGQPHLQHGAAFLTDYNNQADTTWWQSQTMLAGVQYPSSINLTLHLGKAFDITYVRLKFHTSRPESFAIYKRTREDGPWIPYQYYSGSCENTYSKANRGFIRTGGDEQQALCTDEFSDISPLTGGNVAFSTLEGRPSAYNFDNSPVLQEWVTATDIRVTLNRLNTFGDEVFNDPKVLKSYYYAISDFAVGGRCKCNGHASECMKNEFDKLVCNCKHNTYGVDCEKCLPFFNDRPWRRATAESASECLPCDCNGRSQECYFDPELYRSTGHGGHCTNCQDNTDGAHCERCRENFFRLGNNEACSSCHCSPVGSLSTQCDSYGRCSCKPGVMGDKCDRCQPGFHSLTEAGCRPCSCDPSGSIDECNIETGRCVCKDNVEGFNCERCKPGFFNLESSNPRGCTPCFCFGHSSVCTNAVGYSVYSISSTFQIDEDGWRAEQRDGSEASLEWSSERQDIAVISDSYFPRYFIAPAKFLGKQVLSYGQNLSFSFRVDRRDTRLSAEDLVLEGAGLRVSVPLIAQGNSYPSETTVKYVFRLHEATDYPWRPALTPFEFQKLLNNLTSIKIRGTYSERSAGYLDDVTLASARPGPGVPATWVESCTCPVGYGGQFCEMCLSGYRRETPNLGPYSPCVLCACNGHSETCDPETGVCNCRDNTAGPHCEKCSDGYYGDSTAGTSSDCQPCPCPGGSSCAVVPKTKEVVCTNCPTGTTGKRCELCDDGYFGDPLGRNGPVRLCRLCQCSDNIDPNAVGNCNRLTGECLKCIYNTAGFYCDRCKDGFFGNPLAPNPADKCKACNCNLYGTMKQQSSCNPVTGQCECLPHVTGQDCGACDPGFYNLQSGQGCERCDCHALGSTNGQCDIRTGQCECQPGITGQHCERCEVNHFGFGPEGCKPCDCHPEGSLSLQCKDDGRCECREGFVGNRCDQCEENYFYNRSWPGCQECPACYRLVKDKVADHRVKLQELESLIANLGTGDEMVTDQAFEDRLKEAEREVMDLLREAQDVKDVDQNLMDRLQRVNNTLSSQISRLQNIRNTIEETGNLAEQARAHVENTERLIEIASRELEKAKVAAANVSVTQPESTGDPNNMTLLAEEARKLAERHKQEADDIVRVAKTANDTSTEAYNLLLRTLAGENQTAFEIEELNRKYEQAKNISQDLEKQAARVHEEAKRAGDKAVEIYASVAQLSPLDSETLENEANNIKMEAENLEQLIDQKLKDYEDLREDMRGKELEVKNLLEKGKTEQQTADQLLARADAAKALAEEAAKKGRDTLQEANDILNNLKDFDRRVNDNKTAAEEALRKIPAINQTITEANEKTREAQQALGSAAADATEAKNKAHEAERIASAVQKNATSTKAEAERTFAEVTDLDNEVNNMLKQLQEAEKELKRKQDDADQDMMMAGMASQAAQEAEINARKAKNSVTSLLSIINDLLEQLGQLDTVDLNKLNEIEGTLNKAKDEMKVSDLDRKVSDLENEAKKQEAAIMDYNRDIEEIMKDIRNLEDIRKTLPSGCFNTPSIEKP

B1: h2120_VH5 + h2120_VL3 (antibody, human IgG1, V domains shown)
VH: QVTLKESGPVLVKPTETLTLTCTVSGFSLTSNAVSWVRQPPGKALEWIAAISSGGTTYYNSAFKSRLTISRDTSKSQVVLTMTNMDPVDTATYYCARRYGYGWYFDFWGQGTLVTVSS
VL: DIQMTQSPSSLSASVGDRVTINCKASQNIYNSLAWYQQKPGKAPKVLIFNANSLQTGIPSRFSGSGSGTDFTLTISSLQPEDFATYYCQQFYSGYTFGQGTKLEIK
notes: also called h2120VH5VL3; VH5VL3
[1]
  fold reduction in affinity compared to the rodent: < 2 fold
[2]
  fold over rodent (Forte affinity): 1.1 fold
[3]
  fold over rodent (Forte affinity): 1.2 fold
[4]
  fold over rodent (blocking, laminin/FACS): 1.2 fold
[5]
  fold over rodent (blocking, laminin/FACS): 1.5 fold
[6]
  fold reduction in potency compared to the rodent: < 2 fold
[7]
  fold over rodent (competitive ELISA): 2.4 fold
[8]
  IC50 (read off the curve): ~0.6 µg/mL

B2: Recombinant human Fc-tagged MCAM IgG1-2A (human MCAM domains 1 and 2, amino acids 19-242) (Fc fusion)
chain: PRVAGVPGEAEQPAPELVEVEVGSTALLKCGLSQSQGNLSHVDWFSVHKEKRTLIFRVRQGQGQSEPGEYEQRLSLQDRGATLALTQVTPQDERIFLCQGKRPRSQEYRIQLRVYKAPEEPNIQVNPLGIPVNSKEPEEVATCVGRNGYPIPQVIWYKNGRPLKEEKNRVHIQSSQTVESSGLYTLQSILKAQLVKEDKDAQFYCELNYRLPSGNHMKESREVT
notes: also called human MCAM IgG1-2A; MCAM Fc domains 1 and 2; not shown: human Fc tag
[9]
  binding result: no binding (tested: 5-175 nM)
[10]
  Kd: 60 nM
[11]
  Kd: 66 nM

B3: chimeric 2107 (antibody, V domains shown)
VH: QVQLKESGPGLVQSSQTLSLTCTVSGFSLTSNGVSWVRQPPGKGLEWIAAISSGGSTYYNSAFKSRLSISRNTSKSQVLLKMNSLQTEDTGMYFCARHRPFYFDYWGQGVMVTVSS
VL: DIQVTQSPSLLSASVGDRVTLNCKGSQNIYKSLAWFRLKRGEAPKLLIYDANSLQTGIPSRFSGSGSGTDFTLTITSLQPEDVATYFCQQYYSGYTFGAGTKLELK
[12]
  fold over rodent (competitive ELISA): 0.68 fold
[13]
  fold over rodent (competitive ELISA): 1.01 fold
[14]
  fold over rodent (blocking, laminin/FACS): 1 fold
